Measurements taken from publication PMC6753139, “TRIM66 reads unmodified H3R2K4 and H3K56ac to respond to DNA damage in embryonic stem cells” (Nature Communications, 2019).
Where no end group is shown, it is not given here. [ ]: non-standard residue; d: D form. Arg(Me2a) = CN(C)C(=N)NCCC[C@H](N)C(=O)O; Arg(Me) = CNC(=N)NCCC[C@H](N)C(=O)O

Columns and labels:
[1] = target: TRIM66-WT_(965-1160) (human) (UniProt O15016); experiment: ITC; 0.7–4 mM peptide injected into a cell with 0.05 or 0.11–[…] TRIM66-PHD-Bromo (or its mutants), 0.12 mM TRIM24-PHD-Bromo or 0.05 mM TRIM33 PHD-Bromo; 25 °C; 20 mM Tris, 100 mM NaCl, pH 7.5; MicroCal PEAQ-ITC; single measurement
[2] = target: TRIM66-WT_(965-1160) (PHD-Bromodomain) (human) (UniProt O15016); experiment: ITC; MicroCal PEAQ-ITC, 25 °C, 20 mM Tris, 100 mM NaCl, pH 7.5; 0.7-4 mM peptide injected into the cell with 0.12 mM TRIM24-PHD-Bromo, 0.05 mM TRIM33 PHD-Bromo, or 0.05 or 0.11-[…] TRIM66-PHD-Bromo (or its mutants); single measurement, errors from the fitting curve
[3] = target: TRIM66-GSGS_(968-1160) (PHD-Bromodomain) (human) (UniProt O15016); experiment: as above
TRIM66-WT965-1160 = target: T1, TRIM66-WT965-1160 (Homo sapiens, UniProt O15016); experiment: ITC, PHD-Bromodomain wild type; assay type: binding; conditions: for KD / Kd: MicroCal PEAQ-ITC, 20 mM Tris, 100 mM NaCl, error from curve fit, Weak binding = ITC curves cannot be fitted reliably, N.D. = no detectable binding
T1 construct: ITC titration: titrating TRIM66-WT965-1160 with various histone H3 peptides; GST (N, cleaved yes); made in house; host or cells: Escherichia coli BL21 (DE3)
T1 sequence (O15016 1100-1295): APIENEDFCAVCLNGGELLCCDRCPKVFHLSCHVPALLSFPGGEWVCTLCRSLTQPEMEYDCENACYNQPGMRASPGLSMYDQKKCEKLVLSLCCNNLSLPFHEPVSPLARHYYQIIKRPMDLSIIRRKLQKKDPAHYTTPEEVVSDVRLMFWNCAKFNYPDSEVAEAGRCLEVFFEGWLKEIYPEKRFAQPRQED
Source text: We next performed the glutathione S-transferase (GST) pulldown assays of the TRIM66-WT965-1160 against the calf thymus histones to verify the histone-binding ability of TRIM66 PHD-Bromodomain. […] The PHD of TRIM66 shared a low conservation with those of ING4, PHF2, and BPTF, and lacked the conserved aromatic residues, which were necessary for binding H3K4me2/3[40]–[42] (Supplementary Fig. 2b). Nevertheless, TRIM66 was highly conserved in sequence and structure with the PHDs of TRIM24 and TRIM33 (Fig. 1c and Supplementary Fig. 2b), which were reported to bind H3K4me0[5],[6]; thus, we speculated that the PHD of TRIM66 could bind H3K4me0. To verify this hypothesis, we performed isothermal titration calorimetry (ITC)-based binding assays. […] Based on previous researches reporting the acetyl-lysine binding partners of Bromodomain[3]–[12], we chose a series of related peptides derived from H3 and H4, to test their interactions with TRIM66-WT965-1160 by ITC experiments. […] We further found the acetylated state of K56 was necessary for this binding (Supplementary Fig. 3b).
We next titrated the TRIM66-WT965-1160 with a series of R2-methylated H3 peptides through ITC assays. […] This finding was consistent with the structural observation that each NηH atom of the R2 formed a hydrogen bond with residues in protein (Fig. 2d).
The DNA fragments of human TRIM66_968-1160, TRIM24_824-1006, and TRIM33_882-1087 were amplified from a human bone marrow cDNA library using a PCR-based cloning strategy. The fragments of TRIM66-WT968-1160 were inserted into a pGEX-4T-1 plasmid (GE Healthcare). The fragments of TRIM24_824-1006 and TRIM33_882-1087 were ligated into a pET-SUMO-28a (+) plasmid (Novagen). The DNA fragments of TRIM66-MUT968-1160 and TRIM66-WT965-1160 with codon optimization were synthesized by General Biosystems (sequence was shown in Supplementary Methods) and inserted into a pGEXT-4T-1 plasmid (GE Healthcare). Mutants of TRIM66 PHD-Bromo were generated through PCR using the Mutant Best kit (Takara). The mutation of point mutant based on the codon-optimized DNA sequence of TRIM66-WT965-1160. All constructs were expressed in Escherichia coli BL21 (DE3). The construct of ASF1a1-156 inserted into a pRSFDuet plasmid (courtesy of Ruiming Xu Lab, Institute of Biophysics, Chinese Academy of Sciences) was expressed in E. coli BL21 (DE3) RIL. The construct of full-length H4 inserted into a pET3a plasmid was expressed in E. coli BL21 (DE3). The expression of full-length histone H3K56ac was performed in BL21 (DE3) cells transformed with pBK-AxcKRS3 and pET22b encoding H3 with amber codons at the K56 site[12]. The DNA fragment of full-length TRIM66 was synthesized by General Biosystems and ligated into fugw vector (Addgene). See the information of protein sequence in Supplementary Table 1.
The calorimetric experiments were performed at 25 °C using a MicroCal PEAQ-ITC. The proteins were dialyzed using a buffer containing 20 mM Tris and 100 mM NaCl at pH 7.5. Lyophilized peptides were dissolved in the same buffer and adjusted to pH 7.5 prior to use. Peptide concentrations were estimated from the quantitative NMR experiments[73],[74]. ITC measurements were performed via injection of 0.7–4 mM peptide into a cell containing 0.12 mM TRIM24-PHD-Bromo, 0.05 mM TRIM33 PHD-Bromo, and 0.05 or 0.11–0.15 mM TRIM66-PHD-Bromo (or its mutants). The ITC data were subsequently analyzed using the MicroCal PEAQ-ITC analysis software.

[4] = target: T2, TRIM24_(824-1006) (PHD-Bromodomain) (human, UniProt O15164 824-1006); experiment: ITC; MicroCal PEAQ-ITC, 25 °C, 20 mM Tris, 100 mM NaCl, pH 7.5; 0.7-4 mM peptide injected into the cell with 0.12 mM TRIM24-PHD-Bromo, 0.05 mM TRIM33 PHD-Bromo, or 0.05 or 0.11-0.15 mM TRIM66-PHD-Bromo (or its mutants); single measurement, errors from the fitting curve; conditions: both partners purified
T2 construct: TRIM24 PHD-Bromodomain, Homo sapiens, residues 824-1006 of UniProt O15164 (Isoform long); also called TRIM24-PHD-Bromo; source: E. coli BL21 (DE3), purified (Ni column, SUMO protease, second Ni column, Superdex 75)
T2 sequence (looked up): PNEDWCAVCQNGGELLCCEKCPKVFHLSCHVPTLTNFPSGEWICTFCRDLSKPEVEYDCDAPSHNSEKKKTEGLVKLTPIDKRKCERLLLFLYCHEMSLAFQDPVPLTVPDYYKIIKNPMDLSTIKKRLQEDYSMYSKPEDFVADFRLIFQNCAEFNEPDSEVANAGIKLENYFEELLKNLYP

[5] = target: T3, TRIM33_(882-1087) (PHD-Bromodomain) (human, UniProt Q9UPN9 882-1087); experiment: as above; conditions: both partners purified
T3 construct: also called TRIM33 PHD-Bromo; source: E. coli BL21 (DE3), purified (Ni column, SUMO protease, second Ni column, Superdex 75)
T3 sequence (looked up): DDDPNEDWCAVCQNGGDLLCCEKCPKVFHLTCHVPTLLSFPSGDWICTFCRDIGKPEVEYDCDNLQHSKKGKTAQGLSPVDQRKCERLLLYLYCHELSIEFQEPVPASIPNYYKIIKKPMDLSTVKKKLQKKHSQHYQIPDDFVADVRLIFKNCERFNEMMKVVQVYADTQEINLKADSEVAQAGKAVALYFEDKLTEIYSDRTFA

TRIM24_(824-1006) = target: T4, TRIM24_(824-1006) (human, UniProt O15164 824-1006); experiment: ITC; 0.7–4 mM peptide injected into a cell with 0.05 or 0.11–0.15 mM TRIM66-PHD-Bromo (or its mutants), 0.12 mM TRIM24-PHD-Bromo or 0.05 mM TRIM33 PHD-Bromo; 25 °C; 20 mM Tris, 100 mM NaCl, pH 7.5; MicroCal PEAQ-ITC; single measurement; conditions: both partners purified
T4 construct: TRIM24, human, PHD-Bromodomain, residues 824-1006, amplified from a human bone marrow cDNA library, in pET-SUMO-28a (+); also called TRIM24-PHD-Bromo; TRIM24 PHD-Bromodomain; source: E. coli BL21 (DE3), purified (Ni-chelating column, SUMO protease, second nickel column, Superdex 75)
T4 sequence (looked up): T2 sequence (looked up)

TRIM33_(882-1087) = target: T5, TRIM33_(882-1087) (human, UniProt Q9UPN9 882-1087); experiment: as above; conditions: both partners purified
T5 construct: also called TRIM33 PHD-Bromo; TRIM33 PHD-Bromodomain; source: E. coli BL21 (DE3), purified (Ni-chelating column, SUMO protease, second nickel column, Superdex 75)
T5 sequence (looked up): T3 sequence (looked up)

[6] = ITC, 25 °C, pH 7.5, single measurement

Molecule: H3_(1-12)R2me1 peptide (from UniProt P68431 2-13)
- Kd [1]: 72.4 µM
- stoichiometry N [2]: 0.91

Molecule: H3_((1-15)-(48-57))K56ac peptide (from UniProt P68431 2-16; P68431 49-58)
- Kd [1]: 0.52 µM
- stoichiometry N [2]: 1.17

Molecule: H3_(48-57)K56ac peptide (from UniProt P68431 49-58)
- Kd [1]: 109 µM
- stoichiometry N [2]: 1.07
- Kd [3]: 127 µM
- stoichiometry N [3]: 1.23

Molecule: H3_(1-12)R2me2a peptide (from UniProt P68431 2-13)
- Kd [1]: 110 µM
- stoichiometry N [2]: 0.98

Molecule: H3K4me2: dimethylated H3K4 peptide
- KD (TRIM66-WT965-1160; [6]): Weak binding

Molecule: CNC(=N)NCCC[C@H](NC(=O)[C@H](C)N)C(=O)N[C@H](C(=O)N[C@@H](CCCCN)C(=O)N[C@@H](CCC(N)=O)C(=O)N[C@H](C(=O)N[C@@H](C)C(=O)N[C@@H](CCCNC(=N)N)C(=O)N[C@@H](CCCCN)C(=O)N[C@@H](CO)C(=O)N[C@H](C(=O)NCC(=O)O)[C@@H](C)O)[C@@H](C)O)[C@@H](C)O [H3R2me1]
- Kd (TRIM66-WT965-1160; [6]): 72.4 ± 3.27 µM

Molecule: ARTKQTARKSTGGKALREIRRYQK(Ac)S [H3(1-15)-(48-57)K56ac]
- binding (in words) (TRIM66-WT965-1160; ITC, 25 °C, pH 7.5): higher affinity than that for the individual peptides
- -T△S (TRIM66-WT965-1160; [6]): 6.91 kcal per mol
- N (stoichiometry) (TRIM66-WT965-1160; [6]): 1.17±0.01
- △H (TRIM66-WT965-1160; [6]): -15.5±0.15 kcal per mol
- fold higher affinity than for the H3_1-12 peptide (TRIM66-WT965-1160; ratio of KD): 30 fold
- fold higher affinity than for the H3_48-57K56ac peptide (TRIM66-WT965-1160; ratio of KD): 210 fold

Molecule: CNCCCC[C@H](NC(=O)[C@@H](NC(=O)[C@H](CCCNC(=N)N)NC(=O)[C@H](C)N)[C@@H](C)O)C(=O)N[C@@H](CCC(N)=O)C(=O)N[C@H](C(=O)N[C@@H](C)C(=O)N[C@@H](CCCNC(=N)N)C(=O)N[C@@H](CCCCN)C(=O)N[C@@H](CO)C(=O)N[C@H](C(=O)NCC(=O)O)[C@@H](C)O)[C@@H](C)O [H3K4me1]
- Kd (TRIM66-WT965-1160; [6]): 42.8 ± 2.45 µM

Molecule: C[C@H](N)C(=O)N[C@@H](CCCNC(=N)N(C)C)C(=O)N[C@H](C(=O)N[C@@H](CCCCN)C(=O)N[C@@H](CCC(N)=O)C(=O)N[C@H](C(=O)N[C@@H](C)C(=O)N[C@@H](CCCNC(=N)N)C(=O)N[C@@H](CCCCN)C(=O)N[C@@H](CO)C(=O)N[C@H](C(=O)NCC(=O)O)[C@@H](C)O)[C@@H](C)O)[C@@H](C)O [H3R2me2a]
- Kd (TRIM66-WT965-1160; [6]): 110 ± 11.9 µM

Molecule: H3K4me3: trimethylated H3K4 peptide
- KD (TRIM66-WT965-1160; [6]): Weak binding

Molecule: H3_(1-12)K4me1 peptide (from UniProt P68431 2-13)
- Kd [1]: 42.8 µM
- stoichiometry N [2]: 1.1

B1: H3_(1-12)R2me1 peptide (peptide, UniProt P68431 2-13, looked up)
peptide: A[Arg(Me)]TKQTARKSTG
notes: histone H3.1, Homo sapiens, residues 1-12; also called H3R2me1; source: synthetic peptide (GL Biochem)
- stoichiometry N [4]: 0.93
- stoichiometry N [5]: 0.8

B2: H3_(1-12)R2me2a peptide (peptide, UniProt P68431 2-13, looked up)
peptide: A[Arg(Me2a)]TKQTARKSTG
notes: histone H3.1, Homo sapiens, residues 1-12; also called H3R2me2a; source: synthetic peptide (GL Biochem)
- stoichiometry N [4]: 0.86
- stoichiometry N [5]: 1.06

B3: H3_(1-12)R2me1 peptide (peptide, UniProt P68431 2-13, looked up)
peptide: A[Arg(Me)]TKQTARKSTG
notes: histone H3, residues 1-12; also called H3R2me1; monomethylated H3R2; source: synthetic peptide (GL Biochem, Shanghai)
- Kd (TRIM24_(824-1006)): 72.7 µM
- Kd (TRIM33_(882-1087)): 5.1 µM

B4: H3_(1-12)R2me2a peptide (peptide, UniProt P68431 2-13, looked up)
peptide: A[Arg(Me2a)]TKQTARKSTG
notes: histone H3, residues 1-12; also called H3R2me2a; asymmetrically dimethylated H3R2; source: synthetic peptide (GL Biochem, Shanghai)
- Kd (TRIM24_(824-1006)): 76.8 µM
- Kd (TRIM33_(882-1087)): 6.23 µM
